T1: murine CD40 expressed on transfected HEK293 cells (murine, UniProt P27512 20-289)
T1 construct: whole, on cells
T1 sequence (looked up): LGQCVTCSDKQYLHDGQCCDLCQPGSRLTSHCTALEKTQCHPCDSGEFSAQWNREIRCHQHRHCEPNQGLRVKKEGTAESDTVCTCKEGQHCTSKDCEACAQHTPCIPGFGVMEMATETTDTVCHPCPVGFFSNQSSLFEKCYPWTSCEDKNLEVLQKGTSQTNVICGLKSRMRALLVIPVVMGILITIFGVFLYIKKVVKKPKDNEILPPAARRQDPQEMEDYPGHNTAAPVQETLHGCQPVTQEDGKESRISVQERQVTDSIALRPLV

T2: human OX40 expressed on transfected HEK293 cells (human, UniProt P43489 29-277)
T2 construct: whole, on cells
T2 sequence (looked up): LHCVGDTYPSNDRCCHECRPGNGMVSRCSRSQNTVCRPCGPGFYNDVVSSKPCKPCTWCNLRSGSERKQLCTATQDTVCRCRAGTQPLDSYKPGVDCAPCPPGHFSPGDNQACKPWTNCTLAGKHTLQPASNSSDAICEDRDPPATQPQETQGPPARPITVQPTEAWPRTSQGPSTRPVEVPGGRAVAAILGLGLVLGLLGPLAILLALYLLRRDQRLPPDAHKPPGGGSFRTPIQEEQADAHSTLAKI

T3: murine OX40 expressed on transfected HEK293 cells (murine, UniProt P47741 20-272)
T3 construct: whole, on cells
T3 sequence (looked up): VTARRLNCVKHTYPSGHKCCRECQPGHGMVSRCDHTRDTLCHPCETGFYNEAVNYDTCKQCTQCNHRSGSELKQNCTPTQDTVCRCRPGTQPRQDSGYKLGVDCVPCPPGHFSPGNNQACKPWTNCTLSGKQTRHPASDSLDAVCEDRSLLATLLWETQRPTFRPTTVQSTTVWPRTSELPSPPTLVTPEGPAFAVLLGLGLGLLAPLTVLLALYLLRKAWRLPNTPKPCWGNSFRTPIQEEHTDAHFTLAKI

T4: human FAS expressed on transfected HEK293 cells (human, UniProt P25445 26-335)
T4 construct: whole, on cells
T4 sequence (looked up): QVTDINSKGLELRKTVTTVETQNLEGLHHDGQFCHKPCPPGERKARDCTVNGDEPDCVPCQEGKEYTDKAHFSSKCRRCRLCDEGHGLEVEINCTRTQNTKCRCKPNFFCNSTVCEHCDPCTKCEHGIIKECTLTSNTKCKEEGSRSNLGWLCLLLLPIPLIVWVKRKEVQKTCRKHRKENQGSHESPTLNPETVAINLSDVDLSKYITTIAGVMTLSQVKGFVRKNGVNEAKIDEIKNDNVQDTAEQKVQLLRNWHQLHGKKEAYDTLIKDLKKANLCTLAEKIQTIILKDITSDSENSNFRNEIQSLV

T5: murine FAS expressed on transfected HEK293 cells (murine, UniProt P25446 22-327)
T5 construct: whole, on cells
T5 sequence (looked up): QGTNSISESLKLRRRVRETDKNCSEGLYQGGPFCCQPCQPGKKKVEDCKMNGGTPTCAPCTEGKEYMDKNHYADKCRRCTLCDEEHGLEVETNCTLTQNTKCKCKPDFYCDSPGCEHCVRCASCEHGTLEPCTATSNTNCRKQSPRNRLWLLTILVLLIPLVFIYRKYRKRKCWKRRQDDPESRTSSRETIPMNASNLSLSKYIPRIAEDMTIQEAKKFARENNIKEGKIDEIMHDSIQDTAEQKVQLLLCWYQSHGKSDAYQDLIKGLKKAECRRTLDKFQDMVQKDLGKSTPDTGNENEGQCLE

T6: murine TNFRSF1A expressed on transfected HEK293 cells (murine, UniProt P25118 30-454)
T6 construct: whole, on cells
T6 sequence (looked up): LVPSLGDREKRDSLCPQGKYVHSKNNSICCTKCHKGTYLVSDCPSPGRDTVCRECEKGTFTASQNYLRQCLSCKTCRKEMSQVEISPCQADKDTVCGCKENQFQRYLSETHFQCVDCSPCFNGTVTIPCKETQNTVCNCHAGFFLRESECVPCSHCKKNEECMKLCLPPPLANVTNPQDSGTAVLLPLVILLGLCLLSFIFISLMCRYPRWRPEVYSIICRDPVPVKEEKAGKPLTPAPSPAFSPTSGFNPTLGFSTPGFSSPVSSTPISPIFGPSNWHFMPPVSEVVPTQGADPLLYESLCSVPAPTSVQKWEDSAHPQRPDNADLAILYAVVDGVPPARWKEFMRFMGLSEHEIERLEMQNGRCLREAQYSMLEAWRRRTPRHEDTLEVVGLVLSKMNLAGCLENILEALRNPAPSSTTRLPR

T7: murine CD27-FcHis fusion protein (murine, UniProt P41272 24-182, limits assumed)
T7 construct: Immobilized directly on the chip by amino coupling; also called mouse CD27; not shown: Fc and His tag
T7 sequence (looked up): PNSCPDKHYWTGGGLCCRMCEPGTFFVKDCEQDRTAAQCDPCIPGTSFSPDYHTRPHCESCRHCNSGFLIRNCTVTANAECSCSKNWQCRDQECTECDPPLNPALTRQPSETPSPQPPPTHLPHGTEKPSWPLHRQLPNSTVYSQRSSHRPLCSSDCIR

B1: anti-CD27 antibody mAb076 (IgG1 form) (antibody, V domains shown)
VH: EVQLVESGGGLVQPGGSLRLSCAASGFTFSDYGIHWVRQAPGKGLEWIGWINPNRGSTNYAQKFQGRVTISRDNSKNTLYLQLNSLRAEDTAVYYCARDYGYTWYFDVWGQGTLVTVSS
VL: DIQLTQSPSSLSASVGDRVTITCRASQDISSVLAWYQQKPGKAPKLLIYAASSLQSGVPSRFSGSGSGTDFTLTISSLQPEDFATYYCQQRDAWPLTFGQGTKVEIK
notes: Human antibody from phage display
B2: anti-CD27 antibody mAb077 (IgG1 form) (antibody, V domains shown)
VH: EVQLVESGGGLVQPGGSLRLSCAASGFTFSGYGIHWVRQAPGKGLEWIGWINPNRGSTKYAQKFQGRVTISRDNSKNTLYLQLNSLRAEDTAVYYCARDPGYTWYFDVWGQGTLVTVSS
VL: DIQLTQSPSSLSASVGDRVTITCRASQDISSDLAWYQQKPGKAPKLLIYAASTLQSGVPSRFSGSGSGTDFTLTISSLQPEDFATYYCQQRDAWPPTFGQGTKVEIK
notes: as for B1

How the values were obtained:
[1] = biological target: T8, human CD40 expressed on transfected HEK293 cells (human, UniProt P25942 21-277); test: flow cytometry on transfected HEK293 cells
T8 construct: whole, on cells
T8 sequence (P25942 21-277): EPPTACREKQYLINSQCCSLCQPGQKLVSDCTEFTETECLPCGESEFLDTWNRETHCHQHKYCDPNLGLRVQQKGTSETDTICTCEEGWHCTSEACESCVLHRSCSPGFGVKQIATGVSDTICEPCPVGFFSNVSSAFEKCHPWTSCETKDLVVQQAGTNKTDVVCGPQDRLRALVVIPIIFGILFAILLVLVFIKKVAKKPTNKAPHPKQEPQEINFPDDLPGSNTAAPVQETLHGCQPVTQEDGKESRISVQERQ

[2] = biological target: T1, murine CD40 expressed on transfected …; test: flow cytometry on transfected HEK293 cells
[3] = biological target: T2, human OX40 expressed on transfected …; test: flow cytometry on transfected HEK293 cells
[4] = biological target: T3, murine OX40 expressed on transfected …; test: flow cytometry on transfected HEK293 cells
[5] = biological target: T9, human CD137 expressed on transfected HEK293 cells (human, UniProt Q07011 24-255); test: flow cytometry on transfected HEK293 cells
T9 construct: whole, on cells
T9 sequence (Q07011 24-255): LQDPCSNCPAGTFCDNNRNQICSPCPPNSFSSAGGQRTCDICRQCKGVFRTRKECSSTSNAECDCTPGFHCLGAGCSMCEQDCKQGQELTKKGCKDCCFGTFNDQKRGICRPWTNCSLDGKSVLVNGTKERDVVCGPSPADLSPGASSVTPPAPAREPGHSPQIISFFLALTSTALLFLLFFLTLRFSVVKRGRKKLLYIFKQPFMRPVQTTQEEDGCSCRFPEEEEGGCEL

[6] = biological target: T4, human FAS expressed on transfected …; test: flow cytometry on transfected HEK293 cells
[7] = biological target: T5, murine FAS expressed on transfected …; test: flow cytometry on transfected HEK293 cells
[8] = biological target: T6, murine TNFRSF1A expressed on …; test: flow cytometry on transfected HEK293 cells
[9] = biological target: T7, murine CD27-FcHis fusion protein; test: SPR (Biacore), murine CD27-FcHis immobilized, antibody as analyte
Description: The affinity of the antibody binding to […] CD27 was also determined using SPR. In this experiment, the murine CD27-FcHis fusion protein was directly immobilized on a CMS chip (600 RU) by amino coupling. Antibodies at different concentrations (0.39, 0.78, 1.56, 3.13, 6.25, 12.5, 25, 50, 100 nM) were loaded at a flow rate of […] for 30 seconds with a dissociation time of 1800 seconds.

Row | Binder | binding result [1] | binding result [2] | binding result [3] | binding result [4] | binding result [5] | binding result [6] | binding result [7] | binding result [8] | binding result [9]
1 | B1 | no binding (tested: 100 nM) | no binding (tested: 100 nM) | no binding (tested: 100 nM) | no binding (tested: 100 nM) | no binding (tested: 100 nM) | no binding (tested: 100 nM) | no binding (tested: 100 nM) | no binding (tested: 100 nM) | binds
2 | B2 | no binding (tested: 100 nM) | no binding (tested: 100 nM) | no binding (tested: 100 nM) | no binding (tested: 100 nM) | no binding (tested: 100 nM) | no binding (tested: 100 nM) | no binding (tested: 100 nM) | no binding (tested: 100 nM) | binds

From patent US20190225698A1 (JIANGSU HENGRUI MEDICINE, published 2019)
